Laboratory results reported in paper doi:10.1101/2025.08.06.668938 (bioRxiv, 2025).
Where a chain is given by its changes, count along the chain named.

B1: adalimumab VH paired with germline IGKV7-3*01/IGKJ1*01 with the adalimumab light CDRs grafted (antibody, V domains shown)
VH: not shown
VL: DIVLTQSPASLAVSPGQRATITCRASQGIRNYLAWYQQKPGQPPKLLIYAASTLQSGVPARFSGSGSGTDFTLTINPVEANDTANYYCQRYNRAPYTFGQGTKVEIK
notes: as the VH of m3 (native VH of adalimumab); germline V-gene IGKV7-3*01 combined with J-gene IGKJ1*01, all three light CDRs of adalimumab (Kabat definition) grafted; Whole antibody; also called Germline-3+ (adalimumab)
B2: pembrolizumab (antibody, V domains shown)
VH: QVQLVQSGVEVKKPGASVKVSCKASGYTFTNYYMYWVRQAPGQGLEWMGGINPSNGGTNFNEKFKNRVTLTTDSSTTTAYMELKSLQFDDTAVYYCARRDYRFDMGFDYWGQGTTVTVSS
VL: EIVLTQSPATLSLSPGERATLSCRASKGVSTSGYSYLHWYQQKPGQAPRLLIYLASYLESGVPARFSGSGSGTDFTLTISSLEPEDFAVYYCQHSRDLPLTFGGGTKVEIK
notes: native VH of the therapeutic pembrolizumab (humanised, IGHV1); Whole antibody (detected by anti-human IgG Fc); also called therapeutic; positive control (pembrolizumab panels)
B3: pembrolizumab VH paired with germline IGKV3-20*01/IGKJ1*01 with the pembrolizumab light CDRs grafted (antibody, V domains shown)
VH: B2 VH
VL: B2 VL with A9G, V62I, A64D, S81R, G104Q
notes: as the VH of m13 (native VH of pembrolizumab); germline V-gene IGKV3-20*01 combined with J-gene IGKJ1*01, all three light CDRs of pembrolizumab (Kabat definition) grafted; Whole antibody; also called Germline-1+ (pembrolizumab)
B4: pembrolizumab VH paired with germline IGKV3-11*01/IGKJ1*01 with the pembrolizumab light CDRs grafted (antibody, V domains shown)
VH: B2 VH
VL: B2 VL with V62I, G104Q
notes: as the VH of m13 (native VH of pembrolizumab); germline V-gene IGKV3-11*01 combined with J-gene IGKJ1*01, all three light CDRs of pembrolizumab (Kabat definition) grafted; Whole antibody; also called Germline-2+ (pembrolizumab)
B5: pembrolizumab VH paired with germline IGKV7-3*01/IGKJ1*01 with the pembrolizumab light CDRs grafted (antibody, V domains shown)
VH: B2 VH
VL: DIVLTQSPASLAVSPGQRATITCRASKGVSTSGYSYLHWYQQKPGQPPKLLIYLASYLESGVPARFSGSGSGTDFTLTINPVEANDTANYYCQHSRDLPLTFGQGTKVEIK
notes: as the VH of m13 (native VH of pembrolizumab); germline V-gene IGKV7-3*01 combined with J-gene IGKJ1*01, all three light CDRs of pembrolizumab (Kabat definition) grafted; Whole antibody; also called Germline-3+ (pembrolizumab)
B6: adalimumab VH paired with LICHEN-2 light sequence (pairing_CDRs) (antibody, V domains shown)
VH: not shown
VL: DIQMTQSPSFVSASVGDRVTITCRASQGIRNYLAWYQQKPGKAPEVLISAASTLQSGVPSRFSGSGSGTEFTLTITNLQPEDSATYFCQRYNRAPYTFGQGTRLDIK
notes: as the VH of m3 (native VH of adalimumab); Whole antibody; also called LICHEN-2 (adalimumab)
B7: adalimumab VH paired with LICHEN-3 light sequence (pairing_CDRs) (antibody, V domains shown)
VH: not shown
VL: DIVMTQTPPSSPVTLGQPASISCRASQGIRNYLAWYQQKPGQSPKLLISAASTLQSGVPSRFSGSGSGTDFTLKISSLQPEDVATYYCQRYNRAPYTFGQGTKLEIK
notes: as the VH of m3 (native VH of adalimumab); Whole antibody; also called LICHEN-3 (adalimumab)
B8: adalimumab VH paired with LICHEN-5 light sequence (pairing_CDRs) (antibody, V domains shown)
VH: not shown
VL: EIVLTQSPATLSLSPGERATLSCRASQGIRNYLAWYQQKPGQAPRLLIYAASTLQSGIPARFSGSGSGTDFTLTISSLEPEDFAVYYCQRYNRAPYTFGQGTKLEIK
notes: as the VH of m3 (native VH of adalimumab); Whole antibody; also called LICHEN-5 (adalimumab)

What was measured:
[1] = molecular target: T1, TNF-α (Homo sapiens, UniProt P01375, biotinylated (said of the BLI experiment)); assay: ELISA; screening ELISA; antigen coated at 1 µg/mL (30 ng/well) in bicarbonate coating buffer on 384-well MaxiSorp overnight at 4°C; blocked with 4% milk in PBS; antibody at 1 µg/mL in PBS, 2 h at room temperature; goat anti-human IgG Fc-HRP, TMB, absorbance at 450 nm; conditions: both partners purified
T1 construct: TNF-α, a pro-inflammatory cytokine, target of adalimumab; also called Purified TNF-α; biotinylated TNF-α; source: bought: Acro Biosciences (Cat #TNA-H82E3, Lot #BV2043-241DF11R8)
T1 sequence (P01375 77-233): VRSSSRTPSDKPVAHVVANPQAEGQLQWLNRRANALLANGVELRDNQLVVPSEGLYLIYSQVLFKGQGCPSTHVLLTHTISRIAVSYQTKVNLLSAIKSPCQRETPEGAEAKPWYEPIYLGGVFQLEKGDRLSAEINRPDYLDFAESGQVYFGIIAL

[2] = molecular target: T2, Human PD-1 (human, UniProt Q15116); assay: as above; conditions: both partners purified
T2 construct: programmed death receptor 1 (PD-1), human, target of pembrolizumab; The printed catalogue number is that of the TNF-α product, probably a slip; also called programmed death receptor 1; Target (pembrolizumab panels); source: bought: Acro Biosciences (printed Cat #TNA-H82E3, Lot #BV2043-241DF1-1R8)
T2 sequence (Q15116 25-170): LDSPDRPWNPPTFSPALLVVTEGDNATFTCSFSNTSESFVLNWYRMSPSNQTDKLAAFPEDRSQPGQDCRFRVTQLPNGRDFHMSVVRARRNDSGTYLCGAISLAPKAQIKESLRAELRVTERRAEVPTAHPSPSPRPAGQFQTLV

Binder	binding result [1]	binding result [2]
B1	binds	–
B2	–	binds
B3	–	binds
B4	–	binds
B5	–	binds
B6	binds	–
B7	binds	–
B8	binds	–
